This note sets out measurements from patent publication US6541002.

The target in this series is Vpr-Gal4AD chimeric protein (UniProt P12520).

On to UDG-Gal4BD chimeric protein UDG F225G, for which the “beta-galactosidase activity, liquid culture of double transformant yeast, relative to wild type UDG-Gal4BD” value is recorded as “exhibited only 7% of the ability to interact with Vpr-Gal4AD chimeric protein”.
UDG-Gal4BD chimeric protein UDG W222G: the “beta-galactosidase activity, liquid culture of double transformant yeast, relative to wild type UDG-Gal4BD” value was “exhibited less than half (43%) of the ability to interact with Vpr-Gal4AD chimeric protein”.
